The values below come from paper PMC4045322 (Biochemistry, 2014).

One data set concerns the target T1, Rsp3690 (Cereibacter sphaeroides, UniProt Q3IVY4).
T1 sequence (Q3IVY4 1-354): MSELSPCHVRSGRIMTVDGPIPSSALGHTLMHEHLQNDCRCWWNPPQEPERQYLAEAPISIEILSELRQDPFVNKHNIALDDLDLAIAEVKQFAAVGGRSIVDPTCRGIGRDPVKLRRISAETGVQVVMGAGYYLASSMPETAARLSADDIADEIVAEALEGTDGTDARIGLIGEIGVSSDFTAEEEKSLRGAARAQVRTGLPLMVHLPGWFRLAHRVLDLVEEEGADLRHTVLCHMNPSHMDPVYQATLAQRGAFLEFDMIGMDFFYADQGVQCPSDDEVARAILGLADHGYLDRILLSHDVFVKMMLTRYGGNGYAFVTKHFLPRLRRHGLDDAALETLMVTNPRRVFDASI
As to the kind of experiment: 4-nitrophenol release at […] nm. The note with it: pH 8.3, 30 °C, 400 μM MnCl2, Mn enzyme.

Substrate in data set [1]: CC(=O)Nc1ccc(Cl)cc1
Nature of the data set: purified protein. The class given is biochemical, Cereibacter sphaeroides. To be noted: pH 8.3, 30 °C, 400 μM MnCl2, Mn enzyme.

Substrate in data set [2]: CC(=O)OCc1ccccc1
As to the kind of experiment: purified protein. In kind it is biochemical, Cereibacter sphaeroides. The note with it: pH 8.3, 30 °C, 400 μM MnCl2, Mn enzyme.

Substrate in data set [3]: CC(=O)Oc1c[nH]c2ccccc12
As to the kind of experiment: purified protein. In kind it is biochemical, Cereibacter sphaeroides. To be noted: 50 mM Hepes pH 8.3, 1% ethanol, 30 °C, 400 μM MnCl2, Mn enzyme.

Substrate in data set [4]: CC(=O)Oc1ccc(OC(C)=O)cc1
As to the kind of experiment: purified protein. The note with it: pH 8.3, 30 °C, 400 μM MnCl2, Mn enzyme. In kind it is biochemical, Cereibacter sphaeroides.

Substrate in data set [5]: CC(=O)Oc1ccc2c(C)cc(=O)oc2c1
Nature of the data set: purified protein. The note with it: pH 8.3, 30 °C, 400 μM MnCl2, Mn enzyme. The class given is biochemical, Cereibacter sphaeroides.

Substrate in data set [6]: CC(=O)Oc1ccc2ccccc2c1
As to the kind of experiment: purified protein. In kind it is biochemical, Cereibacter sphaeroides. The note with it: pH 8.3, 30 °C, 400 μM MnCl2, Mn enzyme.

Substrate in data set [7]: CC(=O)Oc1cccc2ccccc12
As to the kind of experiment: purified protein. The class given is biochemical, Cereibacter sphaeroides. The note with it: pH 8.3, 30 °C, 400 μM MnCl2, Mn enzyme.

Substrate in data set [8]: CC(=O)Oc1ccccc1
Nature of the data set: purified protein. The class given is biochemical, Cereibacter sphaeroides. The note with it: pH 8.3, 30 °C, 400 μM MnCl2, Mn enzyme.

Substrate in data set [9]: CC(=O)Oc1cccnc1
Nature of the data set: purified protein. In kind it is biochemical, Cereibacter sphaeroides. To be noted: pH 8.3, 30 °C, 400 μM MnCl2, Mn enzyme.

Substrate in data set [10]: CCC(=O)Oc1ccc2ccccc2c1
Nature of the data set: purified protein. The class given is biochemical, Cereibacter sphaeroides. The note with it: pH 8.3, 30 °C, 400 μM MnCl2, Mn enzyme.

Substrate in data set [11]: CCCC(=O)Oc1ccc2c(C)cc(=O)oc2c1
As to the kind of experiment: purified protein. The class given is biochemical, Cereibacter sphaeroides. The note with it: pH 8.3, 30 °C, 400 μM MnCl2, Mn enzyme.

Substrate in data set [12]: CCCC(=O)Oc1cccc2ccccc12
As to the kind of experiment: purified protein. The note with it: pH 8.3, 30 °C, 400 μM MnCl2, Mn enzyme. In kind it is biochemical, Cereibacter sphaeroides.

Substrate in data set [13]: CCCCCCC(=O)Oc1ccc2c(C)cc(=O)oc2c1
As to the kind of experiment: purified protein. To be noted: pH 8.3, 30 °C, 400 μM MnCl2, Mn enzyme. In kind it is biochemical, Cereibacter sphaeroides.

Substrate in data set [14]: CC(=O)Nc1ccc([N+](=O)[O-])cc1
As to the kind of experiment: purified protein. The note with it: pH 8.3, 30 °C, 400 μM MnCl2, Mn enzyme.

Substrate in data set [15]: CC(=O)Oc1ccc([N+](=O)[O-])cc1
Nature of the data set: purified protein. The note with it: pH 8.3, 30 °C, 400 μM MnCl2, Mn enzyme.

Substrate in data set [16]: CCCC(=O)Oc1ccc([N+](=O)[O-])cc1
Nature of the data set: purified protein. To be noted: pH 8.3, 30 °C, 400 μM MnCl2, Mn enzyme.

Substrate in data set [17]: CCCCCC(=O)Oc1ccc([N+](=O)[O-])cc1
As to the kind of experiment: purified protein. The note with it: pH 8.3, 30 °C, 400 μM MnCl2, Mn enzyme.

Substrate in data set [18]: CCCCCCCC(=O)Oc1ccc([N+](=O)[O-])cc1
Nature of the data set: purified protein. The note with it: pH 8.3, 30 °C, 400 μM MnCl2, Mn enzyme.

Regarding `COP(=O)(OC)Oc1ccc([N+](=O)[O-])cc1` [compound 26, methyl paraoxon], the Km at Rsp3690 was found to be 420 ± 40 µM.
The same measure, in the same setting: next, `CCOP(=O)(OCC)Oc1ccc([N+](=O)[O-])cc1` [compound 27, paraoxon]: 110 ± 10 µM.

B1: Rsp3690 (Cereibacter sphaeroides 2.4.1) (protein)
chain: MSELSPCHVRSGRIMTVDGPIPSSALGHTLMHEHLQNDCRCWWNPPQEPERQYLAEAPISIEILSELRQDPFVNKHNIALDDLDLAIAEVKQFAAVGGRSIVDPTCRGIGRDPVKLRRISAETGVQVVMGAGYYLASSMPETAARLSADDIADEIVAEALEGTDGTDARIGLIGEIGVSSDFTAEEEKSLRGAARAQVRTGLPLMVHLPGWFRLAHRVLDLVEEEGADLRHTVLCHMNPSHMDPVYQATLAQRGAFLEFDMIGMDFFYADQGVQCPSDDEVARAILGLADHGYLDRILLSHDVFVKMMLTRYGGNGYAFVTKHFLPRLRRHGLDDAALETLMVTNPRRVFDASI
As to B1, the Km is 1600 ± 100 µM in “purified protein [1]”; 1600 ± 100 µM in “purified protein [2]”; 1900 ± 200 µM in the data set “purified protein [3]”; 900 ± 100 µM in “purified protein [4]”; 240 ± 20 µM in the data set “purified protein [5]”; 400 ± 40 µM in “purified protein [6]”. Further, the Km in the data set “purified protein [7]” turned out to be 640 ± 70 µM; in the data set “purified protein [8]”, 2800 ± 200 µM; in the data set “purified protein [9]” it was 1800 ± 200 µM; in the data set “purified protein [10]”, 560 ± 30 µM; in the data set “purified protein [11]”, 160 ± 20 µM; in the data set “purified protein [12]” it was 180 ± 20 µM. The Km in “purified protein [13]” stood at 24 ± 3 µM; in “purified protein [14]”, 650 ± 60 µM; in the data set “purified protein [15]”, 520 ± 40 µM; in “purified protein [16]”, 56 ± 3 µM; in “purified protein [17]” it was 48 ± 5 µM; in “purified protein [18]”, 33 ± 4 µM. For the same molecule, the kcat was determined as 0.1 ± 0.01 s⁻¹ in the data set “purified protein [1]”; 2.5 ± 0.1 s⁻¹ in “purified protein [2]”; 2.3 ± 0.1 s⁻¹ in “purified protein [3]”; 108 ± 4 s⁻¹ in “purified protein [4]”; 0.65 ± 0.02 s⁻¹ in the data set “purified protein [5]”; 40 ± 2 s⁻¹ in the data set “purified protein [6]”. The kcat stood at 4.8 ± 0.1 s⁻¹ in the data set “purified protein [7]”; 30 ± 1 s⁻¹ in the data set “purified protein [8]”; 4.3 ± 0.3 s⁻¹ in the data set “purified protein [9]”; 83 ± 2 s⁻¹ in the data set “purified protein [10]”; 4.9 ± 0.2 s⁻¹ in the data set “purified protein [11]”; 9 ± 1 s⁻¹ in the data set “purified protein [12]”. For the same molecule, the kcat in “purified protein [13]” was found to be 0.063 ± 0.001 s⁻¹; in “purified protein [14]”, 0.36 ± 0.02 s⁻¹; in “purified protein [15]” it was 120 ± 3 s⁻¹; in the data set “purified protein [16]”, 50 ± 1 s⁻¹; in “purified protein [17]”, 6.5 ± 0.2 s⁻¹; in the data set “purified protein [18]”, 0.5 ± 0.01 s⁻¹. Also, the kcat/Km in “purified protein [1]” was 63 ± 7 M⁻¹ s⁻¹; in the data set “purified protein [2]”, 1600 ± 100 M⁻¹ s⁻¹; in the data set “purified protein [3]”, 1200 ± 100 M⁻¹ s⁻¹; in the data set “purified protein [4]” it was 130000 ± 10000 M⁻¹ s⁻¹; in the data set “purified protein [5]” it was 2700 ± 200 M⁻¹ s⁻¹; in the data set “purified protein [6]” it was 100000 ± 10000 M⁻¹ s⁻¹. Further, the kcat/Km in “purified protein [7]” was determined as 7500 ± 100 M⁻¹ s⁻¹; in “purified protein [8]”, 11000 ± 1000 M⁻¹ s⁻¹; in “purified protein [9]” it was 2400 ± 300 M⁻¹ s⁻¹; in the data set “purified protein [10]”, 150000 ± 10000 M⁻¹ s⁻¹; in “purified protein [11]”, 31000 ± 4000 M⁻¹ s⁻¹; in the data set “purified protein [12]”, 50000 ± 6000 M⁻¹ s⁻¹. In addition, the catalytic efficiency (kcat/Km) came out at 2600 ± 300 M⁻¹ s⁻¹ in the data set “purified protein [13]”; 550 ± 60 M⁻¹ s⁻¹ in the data set “purified protein [14]”; 230000 ± 20000 M⁻¹ s⁻¹ in “purified protein [15]”; 880000 ± 40000 M⁻¹ s⁻¹ in “purified protein [16]”; 130000 ± 10000 M⁻¹ s⁻¹ in the data set “purified protein [17]”; 15000 ± 2000 M⁻¹ s⁻¹ in “purified protein [18]”.

As a reminder, the Km is the substrate concentration at which the rate is half of its maximum. Broadly, the kcat is the maximal rate divided by the concentration of active sites. Broadly, the kcat/Km is the second-order rate constant that governs catalysis at low substrate concentration.
